# According to publication PMC5568246:
# What was measured:
# [1] = biological target: 70S ribosomes (E. coli JE28, with endogenous L7/L12) (E. coli (endogenous in JE28)) (UniProt P0A7K2); assay: other fluorescence titration
# [2] = biological target: L7/L12-depleted 70S ribosomes reconstituted with recombinant L12 (E. coli | E. coli (endogenous in JE28)) (UniProt P0A7K2); assay: co-sedimentation
# [3] = biological target: L7/L12-depleted 70S ribosomes (E. coli (endogenous in JE28)) (UniProt P0A7J3); assay: SEC
# [4] = biological target: L7/L12-depleted 70S ribosomes (E. coli (endogenous in JE28)) (UniProt P0A7J3); assay: co-sedimentation
# [5] = biological target: recombinant ribosomal protein L12 (E. coli) (UniProt P0A7K2); assay: SEC
# Chain of UniProt P0A7J3 (P0A7J3 whole entry, looked up): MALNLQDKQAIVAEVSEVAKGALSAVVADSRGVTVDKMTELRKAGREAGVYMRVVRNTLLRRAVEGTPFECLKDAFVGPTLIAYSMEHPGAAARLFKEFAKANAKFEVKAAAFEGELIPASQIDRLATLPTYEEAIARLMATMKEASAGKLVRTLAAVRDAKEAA
substance,measurement,setting,value
EF-G-591 coupled with 5-iodoacetomido fluorescein (from UniProt P0A6M8 1-704) (enzyme),Kd,[1],23 nM
release factor 3 (from UniProt P0A7I4 1-529) (enzyme),percent binding relative to complete 70S,[2],100%
leader peptidase A (from UniProt P60785 1-599) (enzyme),percent binding retained,[3],> 50%
same,percent binding retained,[4],> 50%
recombinant ribosomal protein L12 (from UniProt P0A7K2 1-121) (natural protein),stoichiometry N,[5],2
initiation factor 2 (from UniProt P0A705 1-890) (enzyme),percent binding relative to complete 70S,[2],100%
elongation factor G (from UniProt P0A6M8 1-704) (enzyme),percent co-eluted with the ribosomes,[3],20%
